The results in this text go back to patent publication US9127040B2, “Regulation of sodium channels by PLUNC proteins” (The University of North Carolina at Chapel Hill, priority 2011, dated 2015).

In this assay the target is T1, αβγENaC (Rattus norvegicus, UniProt P37089+P37090+P37091, R138K/R205K/R231K).
T1 construct: expressed in transfected cells; host or cells: Xenopus laevis oocytes (cRNA injection)
T1 sequence (P37089 1-698 R205K/R231K): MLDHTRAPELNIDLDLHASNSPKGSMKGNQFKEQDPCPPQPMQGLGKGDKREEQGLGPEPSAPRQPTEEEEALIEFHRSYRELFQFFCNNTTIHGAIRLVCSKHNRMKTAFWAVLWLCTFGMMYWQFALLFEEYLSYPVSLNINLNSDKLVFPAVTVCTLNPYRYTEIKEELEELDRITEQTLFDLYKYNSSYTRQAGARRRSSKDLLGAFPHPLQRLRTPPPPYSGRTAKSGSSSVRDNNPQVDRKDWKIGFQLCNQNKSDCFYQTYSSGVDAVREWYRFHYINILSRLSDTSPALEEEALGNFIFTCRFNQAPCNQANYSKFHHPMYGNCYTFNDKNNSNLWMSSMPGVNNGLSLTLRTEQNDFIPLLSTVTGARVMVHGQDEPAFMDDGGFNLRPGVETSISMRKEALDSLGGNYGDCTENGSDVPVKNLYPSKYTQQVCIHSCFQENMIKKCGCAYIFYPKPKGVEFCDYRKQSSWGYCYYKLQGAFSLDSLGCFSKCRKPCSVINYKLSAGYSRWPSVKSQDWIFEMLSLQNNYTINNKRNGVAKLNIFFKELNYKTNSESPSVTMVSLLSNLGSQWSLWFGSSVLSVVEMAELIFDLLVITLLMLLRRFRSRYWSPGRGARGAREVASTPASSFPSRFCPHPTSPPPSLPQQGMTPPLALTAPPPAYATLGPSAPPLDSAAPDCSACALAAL
T1 sequence (P37090 1-638): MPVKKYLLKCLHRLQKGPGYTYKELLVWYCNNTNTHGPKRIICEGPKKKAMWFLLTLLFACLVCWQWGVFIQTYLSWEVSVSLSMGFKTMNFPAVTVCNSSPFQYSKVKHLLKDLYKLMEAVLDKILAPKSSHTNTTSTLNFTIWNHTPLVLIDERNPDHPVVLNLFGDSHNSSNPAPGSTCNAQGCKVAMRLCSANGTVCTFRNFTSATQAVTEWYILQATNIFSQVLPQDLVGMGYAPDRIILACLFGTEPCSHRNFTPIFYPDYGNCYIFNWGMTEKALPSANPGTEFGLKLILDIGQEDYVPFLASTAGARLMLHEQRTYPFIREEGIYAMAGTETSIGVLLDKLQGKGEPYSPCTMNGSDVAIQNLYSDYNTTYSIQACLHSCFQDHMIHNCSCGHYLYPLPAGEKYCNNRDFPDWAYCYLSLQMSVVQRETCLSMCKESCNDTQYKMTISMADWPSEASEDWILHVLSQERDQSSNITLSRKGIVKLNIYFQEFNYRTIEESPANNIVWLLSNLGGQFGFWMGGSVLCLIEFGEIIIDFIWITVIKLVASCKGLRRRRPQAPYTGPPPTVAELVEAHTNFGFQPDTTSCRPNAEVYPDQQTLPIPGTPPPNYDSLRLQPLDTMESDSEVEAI
T1 sequence (P37091 1-650 R138K): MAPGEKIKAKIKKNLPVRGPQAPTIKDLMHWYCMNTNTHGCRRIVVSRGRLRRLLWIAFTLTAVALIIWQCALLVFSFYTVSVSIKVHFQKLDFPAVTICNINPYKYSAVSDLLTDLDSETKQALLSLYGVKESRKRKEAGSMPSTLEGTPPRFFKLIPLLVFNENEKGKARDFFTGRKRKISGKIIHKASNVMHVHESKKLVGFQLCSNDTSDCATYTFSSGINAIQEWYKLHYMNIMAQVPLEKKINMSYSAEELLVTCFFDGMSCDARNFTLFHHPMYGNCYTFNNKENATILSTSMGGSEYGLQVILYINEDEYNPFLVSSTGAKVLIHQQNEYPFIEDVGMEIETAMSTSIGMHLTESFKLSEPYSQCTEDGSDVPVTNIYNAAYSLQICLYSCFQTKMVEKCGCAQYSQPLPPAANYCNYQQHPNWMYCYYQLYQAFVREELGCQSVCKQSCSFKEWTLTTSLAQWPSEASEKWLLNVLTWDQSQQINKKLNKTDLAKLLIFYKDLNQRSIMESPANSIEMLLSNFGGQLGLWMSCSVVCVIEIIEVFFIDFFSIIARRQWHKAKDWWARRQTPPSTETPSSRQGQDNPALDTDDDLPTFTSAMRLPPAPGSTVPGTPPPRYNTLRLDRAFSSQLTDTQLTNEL
The assay can be described thus: Amiloride-sensitive whole cell current, two electrode voltage clamp, Xenopus laevis oocytes expressing αβγENaC. Format: cell-based. As to conditions: SPLUNC1 co-expressed. How it is done:
Xenopus laevis oocytes were harvested and injected as described (Donaldson, et al., J. Biol. Chem. 277:8338 (2002)). Defolliculated healthy stage V-VI oocytes were injected with 0.3 ng of CRNA of each ENaC subunit. Injected oocytes were kept in modified Barth's saline (in mM: 88 NaCl, 1 KCl, 2.4 NaHCO3, 0.3 Ca(NO3)2, 0.41 CaCl2, 0.82 MgSO4, and 15 HEPES, adjusted to pH 7.35 with Tris). Oocytes were studied 24 hr after injection using the two electrode voltage clamp technique as previously described (Donaldson, et al., J. Biol. Chem. 277:8338 (2002)). Oocytes were clamped at a holding potential of −60 mV. The change in amiloride-sensitive whole cell current as an indicator of ENaC activity was determined by subtracting the corresponding current value measured in the presence of 10 μM amiloride from that measured before the application of amiloride. Where appropriate, oocytes were incubated with G22-A39 or ABC for 1 h prior to recording. In some experiments β-ENaC^S518C was used which forms ENaCs that are locked into an open probability near 1.0 by exposure to the sulthydral reactive reagent [2-(Trimethyl-ammonium)ethyl]methanethiosulphonate bromide (MTSET). MTSET was added at a concentration of 1 mM to the oocyte bath as previously described (Snyder, J. Clin. Invest. 105: 45 (2000)).
For orientation: Two-electrode voltage clamp holds a large cell at a set potential and records current.

B1: SPLUNC1: human SPLUNC1 (SEQ ID NO:1), 256 amino acid secreted PLUNC family protein; rSPLUNC1 is the purified V5/6His-tagged recombinant form (protein, listed as Homo sapiens)
chain: MFQTGGLIVFYGLLAQTMAQFGGLPVPLDQTLPLNVNPALPLSPTGLAGSLTNALSNGLLSGGLLGILENLPLLDILKPGGGTSGGLLGGLLGKVTSVIPGLNNIIDIKVTDPQLLELGLVQSPDGHRLYVTIPLGIKLQVNTPLVGASLLRLAVKLDITAEILAVRDKQERIHLVLGDCTHSPGSLQISLLDGLGPLPIQGLLDSLTGILNKVLPELVQGNVCPLVNEVLRGLDITLVHDIVNMLIHGLQFVIKV
modifications: V5/6His tag in recombinant form
notes: rSPLUNC1 is the purified V5/6His-tagged recombinant form
Turning to B1, the “current of furin-insensitive αR205,231K,β,γR138K ENaC mutant” value was “also inhibited”.
